In article PMC9720572, “Macromolecular crowding amplifies allosteric regulation of T-cell protein tyrosine phosphatase” (The Journal of Biological Chemistry, 2022):

Target: the molecule itself
Assay: FRET or BRET; in vitro intermolecular FRET; equimolar mixture of the CFP-X-CFP and YFP-X-YFP fusions, total protein 10 nM, kinetic buffer (50 mM Tris-HCl pH 7.0, 125 mM NaCl, 0.01% Tween-20, 1 mM DTT) with 22.5% PEG 3350, 1 h at 30 °C; excitation 400 nm, ratio R of emission at 530 nm/485 nm

B1: TC45^E/A (TC45 with 378KRKRPR383 mutated into 378EAAAPE383), fused at both termini to CFP (CFP-TC45^E/A-CFP) or to YFP (YFP-TC45^E/A-YFP), bacterially expressed (enzyme, UniProt P17706-2 1-387, looked up)
chain: MPTTIEREFEELDTQRRWQPLYLEIRNESHDYPHRVAKFPENRNRNRYRDVSPYDHSRVKLQNAENDYINASLVDIEEAQRSYILTQGPLPNTCCHFWLMVWQQKTKAVVMLNRIVEKESVKCAQYWPTDDQEMLFKETGFSVKLLSEDVKSYYTVHLLQLENINSGETRTISHFHYTTWPDFGVPESPASFLNFLFKVRESGSLNPDHGPAVIHCSAGIGRSGTFSLVDTCLVLMEKGDDINIKQVLLNMRKYRMGLIQTPDQLRFSYMAIIEGAKCIKGDSSIQKRWKELSKEDLSPAFDHSPNKIMTEKYNGNRIGLEEEKLTGDRCTGLSSKMQDTMEENSESALRKRIREDRKATTAQKVQQMKQRLNENEREAAAPELTDT
notes: The His6 tag and its thrombin cleavage are described in general for the pET28 constructs and the purification; also called C-EA-C; Y-EA-Y; not shown: His6, N-terminal, cleaved; CFP (one copy) or YFP (the other copy), N-terminal, kept; CFP (one copy) or YFP (the other copy), C-terminal, kept
- binding result: binds

B2: T-cell protein tyrosine phosphatase, 45 kDa form (TC45), wild type, fused at both termini to CFP (CFP-TC45-CFP) or to YFP (YFP-TC45-YFP), bacterially expressed (enzyme, UniProt P17706-2 1-387, looked up)
chain: MPTTIEREFEELDTQRRWQPLYLEIRNESHDYPHRVAKFPENRNRNRYRDVSPYDHSRVKLQNAENDYINASLVDIEEAQRSYILTQGPLPNTCCHFWLMVWQQKTKAVVMLNRIVEKESVKCAQYWPTDDQEMLFKETGFSVKLLSEDVKSYYTVHLLQLENINSGETRTISHFHYTTWPDFGVPESPASFLNFLFKVRESGSLNPDHGPAVIHCSAGIGRSGTFSLVDTCLVLMEKGDDINIKQVLLNMRKYRMGLIQTPDQLRFSYMAIIEGAKCIKGDSSIQKRWKELSKEDLSPAFDHSPNKIMTEKYNGNRIGLEEEKLTGDRCTGLSSKMQDTMEENSESALRKRIREDRKATTAQKVQQMKQRLNENERKRKRPRLTDT
notes: T-cell protein tyrosine phosphatase (TC-PTP, encoded by PTPN2), 45 kDa form TC45, full-length ORF; the printed residues 377RKRKRPR383 near the C terminus fit the 387-residue TC45 isoform; Self-association was tested with an equimolar mixture of two differently labelled copies: CFP-TC45-CFP and YFP-TC45-YFP; The His6 tag and its thrombin cleavage are described in general for the pET28 constructs …
- binding result: binds
